Experimental data taken from the supplement of paper PMC10724198.
± gives the standard deviation of the averaged measurements.

Tests used:
Saccharomyces cerevisiae [1] = experiment: protein stability index of tFT-peptide fusion (C-terminal peptide) (PSI (0-1 scale)); higher = more stable (slower turnover); conditions: genetic background: wild type; temperature: 30 C
Saccharomyces cerevisiae [2] = experiment: as above
Method: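 MPS profiling in S. cerevisiae of the tFT-X12 degron library: putative degron peptides plus stable controls, 12 aa, fused to the C-terminus of a sfGFP-mCherry timer. Cells are FACS-sorted into 8 mCherry/sfGFP bins and deep-sequenced. PSI runs from 0 (unstable) to 1 (stable). Backgrounds are wild type, das1Δ and doa10Δ at 30 °C, and wild type, das1Δ, cdc34-1 and cdc53-1 at 37 °C; 2-3 technical replicates each.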

[3] = genetic background: cdc34-1, temperature: 37 C
[4] = genetic background: cdc53-1, temperature: 37 C
[5] = genetic background: das1 deletion, temperature: 30 C
[6] = genetic background: das1 deletion, temperature: 37 C
[7] = genetic background: doa10 deletion, temperature: 30 C
[8] = genetic background: wild type, temperature: 30 C
[9] = genetic background: wild type, temperature: 37 C
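Further: PSI is a weighted mean of sequencing reads over stability bins, variants kept only with over 10 reads, mCherry proximal and sfGFP distal, peptide attached via GGGS linker.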

Sequence	protein stability index (Saccharomyces cerevisiae [1])	protein stability index (Saccharomyces cerevisiae [2]; [3])	protein stability index (Saccharomyces cerevisiae [2]; [4])	protein stability index (Saccharomyces cerevisiae [2]; [5])	protein stability index (Saccharomyces cerevisiae [2]; [6])	protein stability index (Saccharomyces cerevisiae [2]; [7])	protein stability index (Saccharomyces cerevisiae [2]; [8])	protein stability index (Saccharomyces cerevisiae [2]; [9])
SVAWFIYVARSI	0.471 ± 0.038	0.529 ± 0.023	0.543 ± 0.072	0.482 ± 0.017	0.611 ± 0.011	0.282 ± 0.0042	0.329 ± 0.011	0.5224 ± 0.0022
YLGPHLRWARCV	0.254 ± 0.015	0.495 ± 0.018	0.715 ± 0.02	0.662 ± 0.027	0.768 ± 0.025	0.1228 ± 0.00053	0.125 ± 0.016	0.183 ± 0.033
EINRKKRKTKIN	0.436 ± 0.04	0.704 ± 0.047	0.7155 ± 0.0039	0.67 ± 0.047	0.771 ± 0.011	0.312 ± 0.023	0.373 ± 0.018	0.465 ± 0.044
VVVRFCLGICFC	0.388 ± 0.011	0.36066 ± 0.00017	0.408 ± 0.013	0.301 ± 0.022	0.438 ± 0.021	0.265 ± 0.0087	0.288 ± 0.017	0.41 ± 0.012
FLRFVFSFTFFV	0.321 ± 0.0054	0.387 ± 0.0054	0.382 ± 0.019	0.408 ± 0.031	0.411 ± 0.0061	0.265 ± 0.0046	0.24 ± 0.028	0.3144 ± 0.0024
FQILLRFFRSVA	0.324 ± 0.017	0.5907 ± 0.0037	0.657 ± 0.025	0.551 ± 0.022	0.612 ± 0.0079	0.189 ± 0.003	0.206 ± 0.029	0.4 ± 0.017
RIYIRVSLIAPR	0.509 ± 0.14	0.523 ± 0.026	0.59 ± 0.05	0.48 ± 0.021	0.5646 ± 0.0015	0.496 ± 0.034	0.48 ± 0.014	0.537 ± 0.017
ISVFLFAFFFIP	0.356 ± 0.031	0.447 ± 0.0098	0.553 ± 0.024	0.395 ± 0.03	0.531 ± 0.013	0.275 ± 0.016	0.306 ± 0.012	0.425 ± 0.01
FRFPCSILMTLL	0.258 ± 0.028	0.578 ± 0.011	0.6111 ± 0.0035	0.538 ± 0.021	0.622 ± 0.026	0.196 ± 0.0043	0.197 ± 0.013	0.297 ± 0.036
WMSVKLLTLRLC	0.199 ± 0.0094	0.302 ± 0.091	0.357 ± 0.014	0.438 ± 0.04	0.551 ± 0.019	0.108 ± 0.031	0.105 ± 0.017	0.124 ± 0.0049
VVGITIMVFIIT	0.333 ± 0.069	0.138 ± 0.0028	0.195 ± 0.065	0.184 ± 0.045	0.312 ± 0.0043	0.15 ± 0.018	0.185 ± 0.027	0.326 ± 0.046
SSAQKVMELQIV	0.404 ± 0.011	0.664 ± 0.011	0.7179 ± 0.0062	0.648 ± 0.018	0.7361 ± 0.0023	0.223 ± 0.0048	0.257 ± 0.042	0.467 ± 0.035
AFRCVVLCWFLK	0.415 ± 0.023	0.31 ± 0.031	0.434 ± 0.0094	0.292 ± 0.038	0.498 ± 0.0098	0.268 ± 0.029	0.281 ± 0.014	0.413 ± 0.011
VFRYWCGIFCLT	0.478 ± 0.07	0.688 ± 0.052	0.701 ± 0.054	0.613 ± 0.025	0.789 ± 0.045	0.528 ± 0.027	0.547 ± 0.019	0.6715 ± 0.0057
NGSCRVVMYIKG	0.552 ± 0.08	0.667 ± 0.014	0.731 ± 0.022	0.592 ± 0.025	0.717 ± 0.014	0.588 ± 0.027	0.61 ± 0.0079	0.662 ± 0.017
LFIWFVSSPFYC	0.452 ± 0.023	0.517 ± 0.025	0.5998 ± 0.0054	0.451 ± 0.017	0.63068 ± 0.0006	0.3134 ± 0.0029	0.343 ± 0.033	0.547 ± 0.01
LSWWCFLVLLHW	0.302 ± 0.094	0.172 ± 0.0081	0.14 ± 0.044	0.232 ± 0.026	0.323 ± 0.021	0.262 ± 0.017	0.202 ± 0.016	0.268 ± 0.012
GWLFTFTCAFRV	0.479 ± 0.058	0.429 ± 0.01	0.441 ± 0.014	0.443 ± 0.027	0.482 ± 0.012	0.4984 ± 0.0014	0.428 ± 0.016	0.4672 ± 0.0025
WTILTVMFCSYI	0.275 ± 0.026	0.312 ± 0.011	0.396 ± 0.014	0.276 ± 0.026	0.418 ± 0.031	0.282 ± 0.0044	0.261 ± 0.022	0.377 ± 0.019
SWAILFVLEGFK	0.477 ± 0.067	0.4673 ± 0.0029	0.548 ± 0.058	0.37 ± 0.021	0.561 ± 0.0092	0.318 ± 0.019	0.366 ± 0.011	0.5837 ± 0.004

Sequence	protein stability index (Saccharomyces cerevisiae [1])	protein stability index (Saccharomyces cerevisiae [2]; [3])	protein stability index (Saccharomyces cerevisiae [2]; [4])	protein stability index (Saccharomyces cerevisiae [2]; [5])	protein stability index (Saccharomyces cerevisiae [2]; [6])	protein stability index (Saccharomyces cerevisiae [2]; [7])	protein stability index (Saccharomyces cerevisiae [2]; [8])	protein stability index (Saccharomyces cerevisiae [2]; [9])
LEGRVLRIFCVT	0.263 ± 0.057	0.496 ± 0.0051	0.593 ± 0.03	0.49 ± 0.0052	0.651 ± 0.018	0.191 ± 0.011	0.212 ± 0.024	0.37 ± 0.048
GQLKGKDETEKK	0.191 ± 0.021	0.7023 ± 0.005	0.749 ± 0.027	0.616 ± 0.023	0.769 ± 0.029	0.645 ± 0.027	0.655 ± 0.051	0.691 ± 0.0094
VVVLRRVIEVMQ	0.342 ± 0.0062	0.327 ± 0.015	0.37 ± 0.025	0.256 ± 0.03	0.448 ± 0.013	0.199 ± 0.0065	0.253 ± 0.027	0.413 ± 0.012
LVFSVIPVLFVL	0.419 ± 0.087	0.454 ± 0.011	0.474 ± 0.025	0.355 ± 0.015	0.528 ± 0.017	0.328 ± 0.015	0.318 ± 0.022	0.461 ± 0.027
CIEIDHVIVAIC	0.446 ± 0.021	0.464 ± 0.019	0.527 ± 0.062	0.348 ± 0.035	0.563 ± 0.03	0.265 ± 0.0061	0.334 ± 0.015	0.492 ± 0.018
EIKTEIGKKKKN	0.503 ± 0.0079	0.632 ± 0.2	0.671 ± 0.022	0.723 ± 0.05	0.658 ± 0.045	0.541 ± 0.0061	0.61 ± 0.028	0.608 ± 0.067
PWIASCRISFLL	0.402 ± 0.0046	0.6766 ± 0.0032	0.734 ± 0.014	0.6 ± 0.0099	0.7393 ± 0.0037	0.338 ± 0.0046	0.347 ± 0.012	0.532 ± 0.029
CVFVWFWCMTWV	0.168 ± 0.0053	0.171 ± 0.089	0.164 ± 0.016	0.0811 ± 0.048	0.313 ± 0.15	0.105 ± 0.069	0.117 ± 0.11	0.345 ± 0.13
LPRDPLHAQIAS	0.384 ± 0.069	0.647 ± 0.019	0.696 ± 0.0026	0.645 ± 0.019	0.6959 ± 0.0017	0.223 ± 0.0072	0.257 ± 0.031	0.516 ± 0.036
VLFVVLVASGLG	0.299 ± 0.023	0.215 ± 0.015	0.312 ± 0.007	0.204 ± 0.032	0.4008 ± 0.00043	0.163 ± 0.01	0.206 ± 0.026	0.4012 ± 0.0037
VSFHFLLLVPCC	0.105 ± 0.082	0.0285 ± 0.0095	0.0251 ± 0.0019	0.0609 ± 0.027	0.0732 ± 0.023	0.044 ± 0.0035	0.0565 ± 0.02	0.0701 ± 0.0096
FMCGWRMLVSVS	0.0594 ± 0.023	0.0379 ± 0.032	0.0371 ± 0.0077	0.0474 ± 0.016	0.0676 ± 0.027	0.0307 ± 0.0023	0.0292 ± 0.011	0.045 ± 0.019
LVILRCAFPVYG	0.3963 ± 0.00083	0.469 ± 0.011	0.529 ± 0.0084	0.339 ± 0.03	0.538 ± 0.009	0.298 ± 0.014	0.332 ± 0.043	0.51345 ± 9.4e-05
RPLRRPRLPLLL	0.4634 ± 0.0032	0.654 ± 0.014	0.698 ± 0.025	0.646 ± 0.0082	0.6926 ± 0.0026	0.363 ± 0.011	0.397 ± 0.035	0.581 ± 0.01
RWFPPPQYLRLV	0.288 ± 0.011	0.567 ± 0.021	0.648 ± 0.014	0.598 ± 0.02	0.68556 ± 0.00021	0.19 ± 0.032	0.163 ± 0.019	0.397 ± 0.024
LEALRFTFYHFF	0.34252 ± 7.1e-06	0.683 ± 0.038	0.7891 ± 0.0068	0.615 ± 0.016	0.788 ± 0.029	0.203 ± 0.0091	0.222 ± 0.018	0.41 ± 0.014
VPLHPPPTVPYI	0.704 ± 0.03	0.674 ± 0.063	0.728 ± 0.014	0.66 ± 0.015	0.7244 ± 0.0069	0.679 ± 0.011	0.675 ± 0.034	0.7038 ± 0.0066
VNWGFLVLLFQL	0.324 ± 0.011	0.446 ± 0.017	0.513 ± 0.025	0.39 ± 0.035	0.561 ± 0.018	0.219 ± 0.029	0.25 ± 0.021	0.4111 ± 0.00064
VGHVFLGVVWLV	0.163 ± 0.013	0.44 ± 0.043	0.573 ± 0.014	0.457 ± 0.031	0.6 ± 0.0034	0.0977 ± 0.0055	0.101 ± 0.013	0.0863 ± 0.011
